Source: PMC8324831, “A synthetic nanobody targeting RBD protects hamsters from SARS-CoV-2 infection” (Nature Communications, 2021)

Target: SARS-CoV-2 S-RBD with Avi-tag and deca-His tag (residues 330-531) (SARS-CoV-2, UniProt P0DTC2, biotin on the Avi tag (BirA) where immobilised on streptavidin sensors or used in ELISA and FSEC)

Binder | binding result
SR7 (VHH) VHH: QVQLVESGGGLVQAGGSLRLSCAASGFPVWSNEMEWYRQAPGKEREWVAAITSYGTTEYADSVKGRFTISRDNAKNTVYLQMNSLKPEDTAVYYCYVYVGYSYIGQGTQVTVS | binds
SR34 (VHH) VHH: QVQLVESGGGLVQAGGSLRLSCAAGGFPVKDHEMEWYRQAPGKEREWVAAITSSGWGTNTYYADSVKGRFTISRDNAKNTVYLQMNSLKPEDTAVYYCYVYVGSSYIGQGTQVTVS | binds
SR14 (VHH) VHH: QVQLVESGGGLVQAGGSLRLSCAASGFPVDSEEMTWYRQAPGKEREWVAAITSDGDITEYADSVKGRFTISRDNAKNTVYLQMNSLKPEDTAVYYCYVWVGRSYLGQGTQVTVS | binds
SR31 (VHH) VHH: QVQLVESGGGLVQAGGSLRLSCAASGFPVWQGEMAWYRQAPGKEREWVAAISSMGYKTYYADSVKGRFTISRDNAKNTVYLQMNSLKPEDTAVYYCAVMVGFWYAGQGTQVTVS | binds
SR32 (VHH) VHH: QVQLVESGGGLVQAGGSLRLSCAASGFPVNVAKMAWYRQAPGKEREWVAAIDSHGAQTHYADSVKGRFTISRDNAKNTVYLQMNSLKPEDTAVYYCAVHVGFWYAGQGTQVTVS | binds
SR1 (VHH) VHH: QVQLVESGGGLVQAGGSLRLSCAASGFPVAAYEMEWYRQAPGKEREWVAAINSMGDQTYYADSVKGRFTISRDNAKNTVYLQMNSLKPEDTAVYYCYVYVGFSYIGQGTQVTVS | binds
SR24 (VHH) VHH: QVQLVESGGGLVQAGGSLRLSCAASGFPVNAMEMTWYRQAPGKEREWVAAIMSEGTWTEYADSVKGRFTISRDNAKNTVYLQMNSLKPEDTAVYYCYVYVGASYIGQGTQVTVS | binds
SR22 (VHH) VHH: QVQLVESGGGLVQAGGSLRLSCAASGFPVASHEMEWYRQAPGKEREWVAAIASSGQWTYYADSVKGRFTISRDNAKNTVYLQMNSLKPEDTAVYYCYVYVGQSYIGQGTQVTVS | binds
SR5 (VHH) VHH: QVQLVESGGGLVQAGGSLRLRCAASGFPVETTEMEWYRQAPGKEREWVAAISSYGSETYYADSVKGRFTISRDNAKNTVYLQMNSLKPEDTAVYYCYVYVGTSYLGQGTQVTVS | binds
SR8 (VHH) VHH: QVQLVESGGGLVQAGGSLRLSCAASGFPVYKREMTWYRQAPGKEREWVAAISSKGVHTEYADSVKGRFTISRDNAKNTVYLQMNSLKPEDTAVYYCYVYVGKSYIGQGTQVTVS | binds
SR11 (VHH) VHH: QVQLVESGGGLVQAGGSLRLSCAASGFPVYSMEMEWYRQAPGKEREWVAAISSWGNETHYADSVKGRFTISRDNAKNTVYLQMNSLKPEDTAVYYCYVYVGASYIGQGTQVTVS | binds
SR21 (VHH) VHH: QVQLVESGGGLVQAGGSLRLSCAASGFPVSKTEMEWYRQAPGKEREWVAAIASAGAETYYADSVKGRFTISRDNAKNTVYLQMNSLKPEDTAVYYCYVYVGQSYIGQGTQVTVS | binds
SR2 (VHH) VHH: QVQLVESGGGLVQAGGSLRLSCAASGFPVKQQEMTWYRQAPGKEREWVAAIESNGHGTEYADSVKGRFTISRDNAKNTVYLQMNSLKPEDTAVYYCYVYVGQSYIGQGTQVTVS | binds
SR19 (VHH) VHH: QVQLVESGGGLVQAGGSLRLSCAASGFPVNTMEMEWYRQAPGKEREWVAAINSSGQETYYADSVKGRFTISRDNAKNTVYLQMNSLKPEDTAVYYCYVYVGQSYIGQGTQVTVS | binds
SR12 (VHH) VHH: QVQLVESGGGLVQAGGSLRLSCAASGFPVNMQEMEWYRQAPGKEREWVAAISSTGWVTYYADSVKGRFTISRDNAKNTVYLQMNSLKPEDTAVYYCYVYVGASYIGQGTQVTVS | binds
SR26 (VHH) VHH: QVQLVESGGGLVQAGGSLRLSCAASGFPVNTREMEWYRQAPGKEREWVAAISSNGHKTYYADSVKGRFTISRDNAKNTVYLQMNSLKPEDTAVYYCYVYVGRSYIGQGTQVTVS | binds
SR29 (VHH) VHH: QVQLVESGGGLVQAGGSLRLSCAASGFPVSQREMTWYRQAPGKEREWVAAIESEGEQTEYADSVKGRFTISRDNAKNTVYLQMNSLKPEDTAVYYCYVYVGRSYIGQGTQVTVS | binds

Binder | binding result
SR16 (VHH) VHH: QVQLVESGGGLVQAGGSLRLSCAASGFPVKKYEMTWYRQAPGKEREWVAAITSKGTYTYYADSVKGRFTISRDNAKNTVYLQMNSLKPEDTAVYYCYVYVGYSYLGQGTQVTVS | binds
SR3 (VHH) VHH: QVQLVESGGGLVQAGGSLRLSCAASGFPVWQEEMEWYRQAPGKEREWVAAITSYGDTTYYADSVKGRFTISRDNAKNTVYLQMNSLKPEDTAVYYCVVYVGGTYIGQGTQVTVS | binds
SR23 (VHH) VHH: QVQLVESGGGLVQAGGSLRLSCAASGFPVYTSEMEWYRQAPGKEREWVAAIASTGAETAYADSVKGRFTISRDNAKNTVYLQMNSLKPEDTAVYYCYVYVGRSYIGQGTQVTVS | binds
SR25 (VHH) VHH: QVQLVESGGGLVQAGGSLRLSCAASGFPVNTAEMVWYRQAPGKEREWVAAIYSEGPITEYADSVKGRFTISRDNAKNTVYLQMNSLKPEDTAVYYCYVYVGSSYIGQGTQVTVS | binds
SR9 (VHH) VHH: QVQLVESGGGLVQAGGSLRLSCAASGFPVIAYEMEWYRQAPGKEREWVAAITSSGTSTYYADSVKGRFTISRDNAKNTVYLQMNSLKPEDTAVYYCYVYVGQSYLGQGTQVTVS | binds
SR18 (VHH) VHH: QVQLVESGGGLVQAGGSLRLSCAASGFPVWFQEMEWYRQAPGKEREWVAAISSQGTHTYYADSVKGRFTISRDNAKNTVYLQMNSLKPEDTAVYYCYVYVGASYLGQGTQVTVS | binds
SR13 (VHH) VHH: QVQLVESGGGLVQAGGSLRLSCAASGFPVDYMEMEWFRQAPGKEREWVAAITSNGRETYYADSVKGRFTVSRDNAKNTVYLQMNSLKPEDTAVYYCYVYVGSSYIGQGTQVTVS | binds
SR28 (VHH) VHH: QVQLVESGGGLVQAGGSLRLSCAASGFPVKMAEMEWYRQAPGKEREWVAAIQSAGRETYYADSVKGRFTISRDNAKNTVYLQMNSLKPEDTAVYYCYVYVGAGYIGQGTQVTVS | binds
SR30 (VHH) VHH: QVQLVESGGGLVQAGGSLRLSCAASGFPVRKHEMEWYRQAPGKEREWVAAISSKGSNTYYADSVKGRFTISRDNAKNTVYLQMNSLKPEDTAVYYCYVYVGASYIGQGTQVTVS | binds
SR33 (VHH) VHH: QVQLVESGGGLVQAGGSLRLSCAASGFPVGSNEMEWYRQAPGKEREWVAAIQSSGVFTYYADSVKGRFTISRDNAKNTVYLQMNSLKPEDTAVYYCYVYVGGSYLGQGTQVTVS | binds
SR17 (VHH) VHH: QVQLVESGGGLVQAGGSLRLSCAASGFPVEGSEMEWYRQAPGKEREWVAAIESNGTHTHYADSVKGRFTISRDNAKNTVYLQMNSLKPEDTAVYYCYVYVGAGYIGQGTQVTVS | binds
SR15 (VHH) VHH: QVQLVESGGGLVQAGGSLRLSCAASGFPVKHAEMEWYRQAPGKEREWVAAISSNGSETYYADSVKGRFTISRDNAKNTVYLQMNSLKPEDTAVYYCYVWVGQSYIGQGTQVTVS | binds
SR20 (VHH) VHH: QVQLVESGGGLVQAGGSLRLSCAASGFPVTSYEMEWYRQAPGKEREWVAAIASWGYHTYYADSVKGRFTISRDNAKNTVYLQMNSLKPEDTAVYYCYVYVGGSYIGQGTQVTVS | binds
SR6 (VHH) VHH: QVQLVESGGGLVQAGGSLRLSCAASGFPVGQQEMTWYRQAPGKEREWVAAILSEGNGTEYADSVKGRFTISRDNAKNTVYLQMNSLKPEDTAVYYCAVYVGATYIGQGTQVTVS | binds
SR10 (VHH) VHH: QVQLVESGGGLVQAGGSLRLSCAASGFPVNKREMTWYRQAPGKEREWVAAITSEGRSTEYADSVKGRFTISRDNAKNTVYLQMNSLKPEDTAVYYCYVFVGSSYIGQGTQVTVS | binds
SR27 (VHH) VHH: QVQLVESGGGLVQAGGSLRLSCAASGFPVWEAEMEWYRQAPGKEREWVAAISSIGTSTAYADSVKGRFTISRDNAKNTVYLQMNSLKPEDTAVYYCIVYVGKTYIGQGTQVTVS | binds
SR35 (VHH) VHH: QVQLVESGGGLVQAGGSLRLSCAASGFPVKHQTMEWYRQAPGKEREWVAAIMSKGRKTEYADSVKGRFTISRDNAKNTVYLQMNSLKPEDTAVYHCHVYVGATYFGQGTQVTVS | binds
